Laboratory results as given in patent publication US11433099B2, “Immunotherapy with B*08 restricted peptides and combination of peptides against cancers and related methods” (Immatics Biotechnologies GmbH, priority 2018, dated 2022).

Target: HLA-B*08:01 (Homo sapiens, UniProt P01889)
Assay: MHC binding assay (UV-ligand exchange, beta2m ELISA)
Conditions: MHC class I binding score; binding to HLA-B*08:01 ranged by peptide exchange yield (UV-ligand exchange, β2m ELISA)
From the text: Candidate peptides for T cell based therapies according to the present invention were further tested for their MHC binding capacity (affinity). The individual peptide-MHC complexes were produced by UV-ligand exchange, where a UV-sensitive peptide is cleaved upon UV-irradiation and exchanged with the peptide of interest as analyzed. Only peptide candidates that can effectively bind and stabilize the peptide-receptive MHC molecules prevent dissociation of the MHC complexes. To determine the yield of the exchange reaction, an ELISA was performed based on the detection of the light chain (β2m) of stabilized MHC complexes. The assay was performed as generally described in Rodenko et al. (Rodenko et al., 2006).
96 well MAXISorp plates (NUNC) were coated over night with 2 ug/ml streptavidin in PBS at room temperature, washed 4× and blocked for 1 h at 37° C. in 2% BSA containing blocking buffer. Refolded HLA-A*02:01/MLA-001 monomers served as standards, covering the range of 15-500 ng/ml. Peptide-MHC monomers of the UV-exchange reaction were diluted 100-fold in blocking buffer. Samples were incubated for 1 h at 37° C., washed four times, incubated with 2 ug/ml HRP conjugated anti-β2m for 1 h at 37° C., washed again and detected with TMB solution that is stopped with […]. Absorption was measured at 450 nm. Candidate peptides that show a high exchange yield (preferably higher than 50%, most preferred higher than 75%) are generally preferred for a generation and production of antibodies or fragments thereof, and/or T cell receptors or fragments thereof, as they show sufficient avidity to the MHC molecules and prevent dissociation of the MHC complexes.

Substance | Peptide exchange
111 (GAGLRITAPL; listed as Homo sapiens) [compound 111] | ++ (20% = ++)
112 (NALDPLSAL; listed as Homo sapiens) [compound 112] | ++ (20% = ++)
113 (MEKGLASL; listed as Homo sapiens) [compound 113] | ++ (20% = ++)
114 (PVKPKFYL; listed as Homo sapiens) [compound 114] | ++ (20% = ++)
115 (MRILKRFLAC; listed as Homo sapiens) [compound 115] | ++ (20% = ++)
116 (FTQNPRVQL; listed as Homo sapiens) [compound 116] | ++ (20% = ++)
117 (VGPNGFKSL; listed as Homo sapiens) [compound 117] | ++ (20% = ++)
118 (MAFVKHLL; listed as Homo sapiens) [compound 118] | +++ (50% = +++)
119 (FQRVSSVSF; listed as Homo sapiens) [compound 119] | +++ (50% = +++)
120 (AQRSEMVTL; listed as Homo sapiens) [compound 120] | ++ (20% = ++)
121 (YSQLSISL; listed as Homo sapiens) [compound 121] | ++ (20% = ++)
122 (ESSAQPTAL; listed as Homo sapiens) [compound 122] | ++ (20% = ++)
123 (SLLPFTLSF; listed as Homo sapiens) [compound 123] | ++ (20% = ++)
124 (HSWTRTSV; listed as Homo sapiens) [compound 124] | +++ (50% = +++)
125 (FPLVTPLL; listed as Homo sapiens) [compound 125] | +++ (50% = +++)
126 (TAAEARLSL; listed as Homo sapiens) [compound 126] | ++ (20% = ++)
127 (EPVIRTVSI; listed as Homo sapiens) [compound 127] | +++ (50% = +++)

Substance | Peptide exchange
128 (HFHNRHVF; listed as Homo sapiens) [compound 128] | +++ (50% = +++)
129 (HRILRLPAL; listed as Homo sapiens) [compound 129] | +++ (50% = +++)
130 (LPAPYQHQL; listed as Homo sapiens) [compound 130] | ++ (20% = ++)
131 (MSTKTTSI; listed as Homo sapiens) [compound 131] | ++ (20% = ++)
132 (IPIQAHQI; listed as Homo sapiens) [compound 132] | +++ (50% = +++)
133 (QATPRVRIL; listed as Homo sapiens) [compound 133] | ++ (20% = ++)
134 (DQRSRATL; listed as Homo sapiens) [compound 134] | ++ (20% = ++)
135 (EYLETKRLAF; listed as Homo sapiens) [compound 135] | + (0% = +)
136 (KMFYRKDVM; listed as Homo sapiens) [compound 136] | +++ (50% = +++)
137 (VQWKPPAL; listed as Homo sapiens) [compound 137] | ++ (20% = ++)
138 (TQHLTVATL; listed as Homo sapiens) [compound 138] | +++ (50% = +++)
139 (YGRIGISLF; listed as Homo sapiens) [compound 139] | ++ (20% = ++)
140 (IAVDKPITL; listed as Homo sapiens) [compound 140] | ++ (20% = ++)
141 (AQLKLVAL; listed as Homo sapiens) [compound 141] | ++ (20% = ++)
142 (YNLIYSMCL; listed as Homo sapiens) [compound 142] | +++ (50% = +++)
143 (DADLREQAL; listed as Homo sapiens) [compound 143] | ++ (20% = ++)
